From patent US20110262477A1 (priority 2008, published 2011)

System: Nc1ncnc2c1ncn2[C@@H]1O[C@H](COP(=O)(O)O)[C@@H](O)[C@H]1O
Assay: purified protein, by the assay type
Details: pH 7.5; 37.0 °C

Bacillus anthracis BasA (AdsA homolog, NCBI locus tag BAS4031), tagged, affinity purified from E. coli, SEQ ID NO:41 (Bacillus anthracis)
Km: 2.01 nM
